Molecular target: Sortilin SORTECD_HIS (human) (UniProt Q99523)
Experiment: HTRF, displacement of PGRN from His-tagged Sortilin ECD

Chain of Sortilin SORTECD_HIS (human) (Q99523 other isoform, or with tags, fused parts or gaps limits assumed): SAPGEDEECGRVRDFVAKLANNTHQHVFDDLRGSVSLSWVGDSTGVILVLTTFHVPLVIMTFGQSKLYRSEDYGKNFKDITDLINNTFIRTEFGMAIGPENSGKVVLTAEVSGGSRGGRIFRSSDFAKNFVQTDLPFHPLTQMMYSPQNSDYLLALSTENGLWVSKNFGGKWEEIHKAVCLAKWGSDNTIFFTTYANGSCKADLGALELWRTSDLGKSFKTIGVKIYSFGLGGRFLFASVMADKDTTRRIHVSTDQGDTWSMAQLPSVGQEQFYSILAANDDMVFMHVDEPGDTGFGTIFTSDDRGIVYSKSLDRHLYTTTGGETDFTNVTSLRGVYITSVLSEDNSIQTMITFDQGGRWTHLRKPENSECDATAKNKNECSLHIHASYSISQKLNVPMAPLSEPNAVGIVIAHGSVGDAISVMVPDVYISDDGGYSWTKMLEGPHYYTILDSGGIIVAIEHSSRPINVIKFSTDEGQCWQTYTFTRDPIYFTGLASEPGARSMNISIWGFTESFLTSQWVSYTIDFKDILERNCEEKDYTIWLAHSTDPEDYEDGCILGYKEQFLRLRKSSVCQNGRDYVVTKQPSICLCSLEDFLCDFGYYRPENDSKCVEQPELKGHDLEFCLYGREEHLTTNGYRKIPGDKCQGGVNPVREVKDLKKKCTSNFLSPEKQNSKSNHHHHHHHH

% inh highest conc: 37%
% inhibition at 1 µM: 37%
Substance: IgG1-b12 (antibody)
